Laboratory results as given in the supplement of paper PMC11811203.

B1: THAP1; numbered along this chain (parent)
chain: MVQSCSAYGCKNRYDKDKPVSFHKFPLTRPSLCKEWEAAVRRKNFKPTKYSSICSEHFTPDCFKRECNNKLLKENAVPTIFLCTEPHDKKEDLLEPQEQLPPPPLPPPVSQVDAAIGLLMPPLQTPVNLSVFCDHNYTVEDTMHQRKRIHQLEQQVEKLRKKLKTAQQRCRRQERQLEKLKEVVHFQKEKDDVSERGYVILPNDYFEIVEVPA

Variants of: B1
Experiment: THAP1 transcriptional activity (GFP+/GFP- enrichment relative to wild-type constructs) (ratio to WT); higher = more THAP1 activity (PSMB5 reporter activation)
Conditions: with PSMB5 promoter-GFP reporter
Method in brief: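 Variants were counted by Illumina sequencing of genomic DNA amplicons from BFP+ cells sorted into GFP-bright and GFP-dim bins five days after lentiviral transduction, in duplicate at MOI ~0.3. The library changed each of residues 2–213 of human THAP1 to all 20 amino acids and was introduced into THAP1-knockout HEK-293T cells with mClover3 knocked in at endogenous PSMB5. Activity equals the replicate-mean bright/dim read fold change over the mean of wild-type synonymous constructs.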

Point of comparison: MVQSCSAYGCKNRYDKDKPVSFHKFPLTRPSLCKEWEAAVRRKNFKPTKYSSICSEHFTPDCFKRECNNKLLKENAVPTIFLCTETHDKKEDLLEPQEQLPPPPLPPPVSQVDAAIGLLMPPLQTPVNLSVFCDHNYTVEDTMHQRKRIHQLEQQVEKLRKKLKTAQQRCRRQERQLEKLKEVVHFQKEKDDVSERGYVILPNDYFEIVEVPA [P86T], THAP1 transcriptional activity 0.609. Against it:
- MVQSCSAYGCKNRYDKDKPVSFHKFPLTRPSLCKEWEAAVRRKNFKPTKYSSICSEHFTPDCFKRECNNKLLKENAVPTIFLCTEPCDKKEDLLEPQEQLPPPPLPPPVSQVDAAIGLLMPPLQTPVNLSVFCDHNYTVEDTMHQRKRIHQLEQQVEKLRKKLKTAQQRCRRQERQLEKLKEVVHFQKEKDDVSERGYVILPNDYFEIVEVPA [H87C] — higher, 1.84
- MVQSCSAYGCKNRYDKDKPVSFHKFPLTRPSLCKEWEAAVRRKNFKPTKYSSICSEHFTPDCFKRECNNKLLKENAVPTIFLCTEPEDKKEDLLEPQEQLPPPPLPPPVSQVDAAIGLLMPPLQTPVNLSVFCDHNYTVEDTMHQRKRIHQLEQQVEKLRKKLKTAQQRCRRQERQLEKLKEVVHFQKEKDDVSERGYVILPNDYFEIVEVPA [H87E] — higher, 2.22
- MVQSCSAYGCKNRYDKDKPVSFHKFPLTRPSLCKEWEAAVRRKNFKPTKYSSICSEHFTPDCFKRECNNKLLKENAVPTIFLCTEPADKKEDLLEPQEQLPPPPLPPPVSQVDAAIGLLMPPLQTPVNLSVFCDHNYTVEDTMHQRKRIHQLEQQVEKLRKKLKTAQQRCRRQERQLEKLKEVVHFQKEKDDVSERGYVILPNDYFEIVEVPA [H87A] — higher, 1.39
- MVQSCSAYGCKNRYDKDKPVSFHKFPLTRPSLCKEWEAAVRRKNFKPTKYSSICSEHFTPDCFKRECNNKLLKENAVPTIFLCTEPKDKKEDLLEPQEQLPPPPLPPPVSQVDAAIGLLMPPLQTPVNLSVFCDHNYTVEDTMHQRKRIHQLEQQVEKLRKKLKTAQQRCRRQERQLEKLKEVVHFQKEKDDVSERGYVILPNDYFEIVEVPA [H87K] — higher, 1.13
- MVQSCSAYGCKNRYDKDKPVSFHKFPLTRPSLCKEWEAAVRRKNFKPTKYSSICSEHFTPDCFKRECNNKLLKENAVPTIFLCTEPFDKKEDLLEPQEQLPPPPLPPPVSQVDAAIGLLMPPLQTPVNLSVFCDHNYTVEDTMHQRKRIHQLEQQVEKLRKKLKTAQQRCRRQERQLEKLKEVVHFQKEKDDVSERGYVILPNDYFEIVEVPA [H87F] — higher, 2.09
- MVQSCSAYGCKNRYDKDKPVSFHKFPLTRPSLCKEWEAAVRRKNFKPTKYSSICSEHFTPDCFKRECNNKLLKENAVPTIFLCTEPMDKKEDLLEPQEQLPPPPLPPPVSQVDAAIGLLMPPLQTPVNLSVFCDHNYTVEDTMHQRKRIHQLEQQVEKLRKKLKTAQQRCRRQERQLEKLKEVVHFQKEKDDVSERGYVILPNDYFEIVEVPA [H87M] — higher, 2.74
- MVQSCSAYGCKNRYDKDKPVSFHKFPLTRPSLCKEWEAAVRRKNFKPTKYSSICSEHFTPDCFKRECNNKLLKENAVPTIFLCTEWHDKKEDLLEPQEQLPPPPLPPPVSQVDAAIGLLMPPLQTPVNLSVFCDHNYTVEDTMHQRKRIHQLEQQVEKLRKKLKTAQQRCRRQERQLEKLKEVVHFQKEKDDVSERGYVILPNDYFEIVEVPA [P86W] — lower, 0.533
- MVQSCSAYGCKNRYDKDKPVSFHKFPLTRPSLCKEWEAAVRRKNFKPTKYSSICSEHFTPDCFKRECNNKLLKENAVPTIFLCTESHDKKEDLLEPQEQLPPPPLPPPVSQVDAAIGLLMPPLQTPVNLSVFCDHNYTVEDTMHQRKRIHQLEQQVEKLRKKLKTAQQRCRRQERQLEKLKEVVHFQKEKDDVSERGYVILPNDYFEIVEVPA [P86S] — higher, 0.97
- MVQSCSAYGCKNRYDKDKPVSFHKFPLTRPSLCKEWEAAVRRKNFKPTKYSSICSEHFTPDCFKRECNNKLLKENAVPTIFLCTEYHDKKEDLLEPQEQLPPPPLPPPVSQVDAAIGLLMPPLQTPVNLSVFCDHNYTVEDTMHQRKRIHQLEQQVEKLRKKLKTAQQRCRRQERQLEKLKEVVHFQKEKDDVSERGYVILPNDYFEIVEVPA [P86Y] — higher, 0.685
- MVQSCSAYGCKNRYDKDKPVSFHKFPLTRPSLCKEWEAAVRRKNFKPTKYSSICSEHFTPDCFKRECNNKLLKENAVPTIFLCTEVHDKKEDLLEPQEQLPPPPLPPPVSQVDAAIGLLMPPLQTPVNLSVFCDHNYTVEDTMHQRKRIHQLEQQVEKLRKKLKTAQQRCRRQERQLEKLKEVVHFQKEKDDVSERGYVILPNDYFEIVEVPA [P86V] — higher, 1.04
- MVQSCSAYGCKNRYDKDKPVSFHKFPLTRPSLCKEWEAAVRRKNFKPTKYSSICSEHFTPDCFKRECNNKLLKENAVPTIFLCTEMHDKKEDLLEPQEQLPPPPLPPPVSQVDAAIGLLMPPLQTPVNLSVFCDHNYTVEDTMHQRKRIHQLEQQVEKLRKKLKTAQQRCRRQERQLEKLKEVVHFQKEKDDVSERGYVILPNDYFEIVEVPA [P86M] — higher, 2.06
- MVQSCSAYGCKNRYDKDKPVSFHKFPLTRPSLCKEWEAAVRRKNFKPTKYSSICSEHFTPDCFKRECNNKLLKENAVPTIFLCTENHDKKEDLLEPQEQLPPPPLPPPVSQVDAAIGLLMPPLQTPVNLSVFCDHNYTVEDTMHQRKRIHQLEQQVEKLRKKLKTAQQRCRRQERQLEKLKEVVHFQKEKDDVSERGYVILPNDYFEIVEVPA [P86N] — lower, 0.592
- MVQSCSAYGCKNRYDKDKPVSFHKFPLTRPSLCKEWEAAVRRKNFKPTKYSSICSEHFTPDCFKRECNNKLLKENAVPTIFLCTERHDKKEDLLEPQEQLPPPPLPPPVSQVDAAIGLLMPPLQTPVNLSVFCDHNYTVEDTMHQRKRIHQLEQQVEKLRKKLKTAQQRCRRQERQLEKLKEVVHFQKEKDDVSERGYVILPNDYFEIVEVPA [P86R] — higher, 0.766
